± gives the uncertainty stated by the source.
B1: SWI/SNF-related matrix-associated actin-dependent regulator of chromatin subfamily B member 1, residues 181 to 248; numbered along this chain, Q12824 (parent)
chain: SQPEVLVPIRLDMEIDGQKLRDAFTWNMNEKLMTPEMFSEILCDDLDLNPLTFVPAIASAIRQQIESY

Variants of: B1
Experiment: abundance fitness (aPCA) (normalised: wild type 0, dead -1); higher = more abundant; growth selection in yeast, the domain comes from the species named
Details: Homo sapiens
SQPEVLVPIRLDMEIDGQKLRDAFTWNMNEKLMTPEMFSEILCDDLDLNPLTFVPIIASAIRQQIESY [A56I] showed an abundance fitness of -0.375 ± 0.11.
Work on SQPEVLVPIRLDMEIEGQKLRDAFTWNMNEKLMTPEMFSEILCDDLDLNPLTFVPAIASAIRQQIESY [D16E] yielded an abundance fitness of -0.042 ± 0.06.
For SQPEVLVPIRLDMEIDGQKLRDAFTWNMNEKLMTPEMFSEILCDDLDLNPLTFVPAIASAIKQQIESY [R62K], the abundance fitness was -0.043 ± 0.047.
For SQPEVLVSIRLDMEIDGQKLRDAFTWNMNEKLMTPEMFSEILCDDLDLNPLTFVPAIASAIRQQIESY [P8S], the abundance fitness was -0.405 ± 0.042.
Work on SQPEVLVPIRLDMEIDGQKLRDAFTWHMNEKLMTPEMFSEILCDDLDLNPLTFVPAIASAIRQQIESY [N27H] yielded an abundance fitness of -0.723 ± 0.17.
Work on SQPEVLVPIRLDMEIDGQKLRDAFTWQMNEKLMTPEMFSEILCDDLDLNPLTFVPAIASAIRQQIESY [N27Q] yielded an abundance fitness of -0.685 ± 0.14.
SQPEVHVPIRLDMEIDGQKLRDAFTWNMNEKLMTPEMFSEILCDDLDLNPLTFVPAIASAIRQQIESY [L6H] gave an abundance fitness of -0.212 ± 0.13.
Variant SQPEVLVPIRLDMEIDGQKLRDAQTWNMNEKLMTPEMFSEILCDDLDLNPLTFVPAIASAIRQQIESY [F24Q] has an abundance fitness of -1.06 ± 0.24.
Work on SQPEVLVPIRLDMEIDGQKLRDAFTWNMNEKLMTPEMFSEILCDDLDLNLLTFVPAIASAIRQQIESY [P50L] yielded an abundance fitness of -0.933 ± 0.17.
Work on SQPEVLVPIRLDMEIDGQKLRDAFTWNMNEKLMTPEMFSEILCDDLDLNFLTFVPAIASAIRQQIESY [P50F] yielded an abundance fitness of -0.285 ± 0.14.
With SQPEVLVPIRLDMEIDGQKLRDAFTWNMNEKLMTPEMFSEILCDDLDLNPLTFVPAIASAIRQQIESP [Y68P] the abundance fitness was -0.473 ± 0.13.
With SQPEHLVPIRLDMEIDGQKLRDAFTWNMNEKLMTPEMFSEILCDDLDLNPLTFVPAIASAIRQQIESY [V5H] the abundance fitness was 0.505 ± 0.19.
SQPEVLVPIRLDMEIDGQKHRDAFTWNMNEKLMTPEMFSEILCDDLDLNPLTFVPAIASAIRQQIESY [L20H] gave an abundance fitness of -0.525 ± 0.37.
For SQPEVLVPIRLDMEIDGQKLRDAFTWNMNEKLMTPEMFSEILCDDLDLNPLTFVPAYASAIRQQIESY [I57Y], the abundance fitness was -0.713 ± 0.19.
In the case of SQPEVLVPIRLDMEIDGQKLRDAFTWNMNEKLMTPEMFSEILCDDWDLNPLTFVPAIASAIRQQIESY [L46W], the abundance fitness is reported as 0.017 ± 0.069.
Work on SQPEALVPIRLDMEIDGQKLRDAFTWNMNEKLMTPEMFSEILCDDLDLNPLTFVPAIASAIRQQIESY [V5A] yielded an abundance fitness of -0.086 ± 0.26.
SQPEVLVPIRLDMEIDGQKLRDEFTWNMNEKLMTPEMFSEILCDDLDLNPLTFVPAIASAIRQQIESY [A23E] showed an abundance fitness of 0.221 ± 0.076.
SQPEVLVPIRLDMEIDGQKLRDAFTWNMNEKLMTPEMFSEILCDDLDLNPLTFVPAIASAIRQCIESY [Q64C] showed an abundance fitness of -0.863 ± 0.12.
SQPEVLVPIRLDMEIDGQKLRDAFTWNMNEKLMTPEMFSEILCDDLDLNPLTFAPAIASAIRQQIESY [V54A] showed an abundance fitness of -0.119 ± 0.44.
In the case of SQPEVLVPIRLDMEIDGQKLRWAFTWNMNEKLMTPEMFSEILCDDLDLNPLTFVPAIASAIRQQIESY [D22W], the abundance fitness is reported as 0.293 ± 0.3.
SQPEVLVPIRLDMEIDGQKLRDAFTWNMNEWLMTPEMFSEILCDDLDLNPLTFVPAIASAIRQQIESY [K31W] showed an abundance fitness of -0.533 ± 0.1.
Variant SQPEVSVPIRLDMEIDGQKLRDAFTWNMNEKLMTPEMFSEILCDDLDLNPLTFVPAIASAIRQQIESY [L6S] has an abundance fitness of 0.036 ± 0.06.
SQPEVLVPIRLDMEIDGQKLRDAFTWNMNEKLMTPEMFSEILCDDLDLNPLTFVPAIASAIRVQIESY [Q63V] showed an abundance fitness of -0.293 ± 0.043.
For SQPEVLVPIRLDMEIDAQKLRDAFTWNMNEKLMTPEMFSEILCDDLDLNPLTFVPAIASAIRQQIESY [G17A], the abundance fitness was -0.867 ± 0.13.
Variant SQPEVLVPIRLDMEIDGRKLRDAFTWNMNEKLMTPEMFSEILCDDLDLNPLTFVPAIASAIRQQIESY [Q18R] has an abundance fitness of -0.276 ± 0.13.
SQPEVLVPIRLDMEIDGQKLRDAFTWNMNEKLMTPEMFSEILCDDLDLNHLTFVPAIASAIRQQIESY [P50H] showed an abundance fitness of -0.039 ± 0.082.
Variant SQPEVLVPIRLDMEIDGQKLRDAFTWNMNEKLMTPEMFSEILCDDLDLNPLTFVPAIASAIRQQINSY [E66N] has an abundance fitness of -0.227 ± 0.11.
In the case of SQPEVLVPIRLDMEIDGQKLRDAFTWNMNEKLMTPEMFSEILHDDLDLNPLTFVPAIASAIRQQIESY [C43H], the abundance fitness is reported as -0.956 ± 0.15.
SQPEVLVPIRLDMEIDGQKLRDAFTWNMNEKLMTPEMFSEILCDDLDLMPLTFVPAIASAIRQQIESY [N49M] showed an abundance fitness of -0.846 ± 0.13.
Work on SQPEVLVPIRLDMEIDGQKLRDAFTWNMNEKLMTPEMFSEILCDDLDLNALTFVPAIASAIRQQIESY [P50A] yielded an abundance fitness of -0.292 ± 0.06.
With SQPEVLVPIRLDMEIDGQKLRDAFTWNMNEKLMTPEMFSEILCDDLMLNPLTFVPAIASAIRQQIESY [D47M] the abundance fitness was -0.265 ± 0.05.
Work on SQPEVLVPIRLDMEIDGQKLRDAFTWNMNEKLMTPEMFSHILCDDLDLNPLTFVPAIASAIRQQIESY [E40H] yielded an abundance fitness of -0.236 ± 0.065.
Work on SQPEVLVPIRLDMEIDGQKLRDAFTWNMNEKLMTPEMFSEILCDDLDLNPLTFVPQIASAIRQQIESY [A56Q] yielded an abundance fitness of -0.095 ± 0.12.
SQPEVLVHIRLDMEIDGQKLRDAFTWNMNEKLMTPEMFSEILCDDLDLNPLTFVPAIASAIRQQIESY [P8H] showed an abundance fitness of -0.641 ± 0.14.
For SQCEVLVPIRLDMEIDGQKLRDAFTWNMNEKLMTPEMFSEILCDDLDLNPLTFVPAIASAIRQQIESY [P3C], the abundance fitness was -0.297 ± 0.07.
SQPEVLTPIRLDMEIDGQKLRDAFTWNMNEKLMTPEMFSEILCDDLDLNPLTFVPAIASAIRQQIESY [V7T] gave an abundance fitness of -0.77 ± 0.19.
With SQPEVLVPIRLDMEIDGQKLRDAFVWNMNEKLMTPEMFSEILCDDLDLNPLTFVPAIASAIRQQIESY [T25V] the abundance fitness was -0.048 ± 0.036.
In the case of DQPEVLVPIRLDMEIDGQKLRDAFTWNMNEKLMTPEMFSEILCDDLDLNPLTFVPAIASAIRQQIESY [S1D], the abundance fitness is reported as -0.123 ± 0.27.
Work on SQPEVLVPIRLDMEIDGQKLRDAFTWNMNEKLMTPEMFSEILCDDLDLNPLLFVPAIASAIRQQIESY [T52L] yielded an abundance fitness of -0.163 ± 0.14.
Work on SQPEVLVPIRLDMEIDGQKLRDAFTWNMNEKLMTPEMFSEILCDDLDLNPLTFVPAIASAIRQQIHSY [E66H] yielded an abundance fitness of -0.45 ± 0.3.

— the Human Domainome abundance scans (Beltran et al. 2025)
